Numbering of substitutions follows the chain as printed.
T1: hAREG-EGFd-mFc (human; mouse, UniProt P15514 142-184)
T1 construct: Expressed in 293F cells; not shown: Fc fragment of mouse IgG2a
T1 chain: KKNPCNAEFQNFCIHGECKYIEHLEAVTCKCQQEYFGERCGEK

T2: hAREG-98aa (human, UniProt P15514 101-198)
T2 construct: Bought protein
T2 sequence (looked up): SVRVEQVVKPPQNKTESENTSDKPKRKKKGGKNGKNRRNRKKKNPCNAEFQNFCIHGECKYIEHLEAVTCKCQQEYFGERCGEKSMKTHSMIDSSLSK

B1: hu9C12v1 (antibody, V domains shown)
VH: EVQLVESGGGLVKPGGSLRLSCAASGFTFSSYPMSWVRQAPGKGLEWVSTISTGGTYTYYPDSVKGRFTISRDNAKNSLYLQMNSLRAEDTAVYYCARQGPIYYGNYYYAMDYWGQGTTVTVSS
VL: DIVMTQSPLSLPVTLGQPASISCRSSQSLVHSDGNTYLHWYQQRPGQSPKLLIYKVSNRFSGVPDRFSGSGSGTDFTLKISRVEAEDVGVYYCSQSTHVPYTFGGGTKVEIK
notes: Humanized 9C12; captured by anti-human Fc in SPR
B2: ch9C12 (antibody, V domains shown)
VH: EVKLVESGGGLVKPGGSLKLSCAASGFTFSSYPMSWVRQTPEKRLEWVATISTGGTYTYYPDSVKGRFTISRDNAKNTLYLQMSSLRSEDTAMYYCARQGPIYYGNYYYAMDYWGQGTSVTVSS
VL: B1 VL with S7P, T14S, Q17D, P18Q, Q42L, V88L, Y92F, V109L
notes: also called chimeric 9C12
B3: hu9C12v5 (antibody, V domains shown)
VH: B1 VH with G42E, Y103L, Y104R, G105K, A110G, Y113V
VL: B1 VL with I2V, Q17D, H31D, S32G, D33Q, G34D, N35G, S61D, G105Q, V109L
notes: Humanized 9C12 variant; captured by anti-human Fc in SPR
B4: hu1H9v1 (antibody, V domains shown)
VH: EVQLVESGGGLVKPGGSLRLSCAASGFTFSGYPMSWVRQAPGKGLEWVSTISTGARHTYYPDSVKGRFTISRDNAKNSLYLQMNSLRAEDTAVYYCARHEGLRRGKYHSIMDYWGQGTLVTVSS
VL: DIVLTQSPASLAVSPGQRATITCRASESVDYDGDSFINWYQQKPGQPPKLLIYAASNKDTGVPARFSGSGSGTDFTLTINPVEAEDTANYYCHQSNEDPYMFGQGTKLEIK
notes: Humanized 1H9; captured by anti-human Fc in SPR
B5: hu1H9v5 (antibody, V domains shown)
VH: B4 VH
VL: DIVMTQSPDSLAVSLGERATINCKSSQSIDYDGDSFLNWYQQKPGQPPKLLIYAASNRESGVPDRFSGSGSGTDFTLTISSLQAEDVAVYYCQQSNEDPYVFGQGTKLEIK
notes: as for B4
B6: hu1H9v4 (antibody, V domains shown)
VH: B4 VH
VL: DIQMTQSPSSLSASVGDRVTITCRASQSIDYDGDSFLNWYQQKPGKAPKLLIYAASNLQSGVPSRFSGSGSGTDFTLTISSLQPEDFATYYCQQSNEDPYVFGQGTKLEIK
notes: as for B4
B7: hu1H9v3 (antibody, V domains shown)
VH: B4 VH
VL: B4 VL with M101V
notes: Humanized 1H9
B8: hu1H9v2 (antibody, V domains shown)
VH: B4 VH
VL: B4 VL with M101L
notes: as for B4
B9: hu23H8v1 (antibody, V domains shown)
VH: EVQLVESGGGLVKPGGSLRLSCAASGFTFNSYAMSWVRQAPGKGLEWVSTISTGGSHTYYPDSVKGRFTISRDNAKNSLYLQMNSLRAEDTAVYYCARHGYLLYDGYYEWYFDYWGQGTLVTVSS
VL: DIVLTQSPASLAVSPGQRATITCRASESVDYDGHSFINWYQQKPGQPPKLLIYAASNKDTGVPARFSGSGSGTDFTLTINPVEAEDTANYYCQQSTEDPPYTFGQGTKLEIK
notes: Humanized 23H8; captured by anti-human Fc in SPR
B10: hu23H8v3 (antibody, V domains shown)
VH: B9 VH
VL: DIVMTQSPDSLAVSLGERATINCKSSQSVDYDGHSFLNWYQQKPGQPPKLLIYAASNRESGVPDRFSGSGSGTDFTLTISSLQAEDVAVYYCQQSTEDPPYTFGQGTKLEIK
notes: as for B9
B11: hu23H8v2 (antibody, V domains shown)
VH: B9 VH
VL: DIQMTQSPSSLSASVGDRVTITCRASQSVDYDGHSFLNWYQQKPGKAPKLLIYAASNLQSGVPSRFSGSGSGTDFTLTISSLQPEDFATYYCQQSTEDPPYTFGQGTKLEIK
notes: as for B9
B12: hu23H8v5 (antibody, V domains shown)
VH: B9 VH with N30S, D62E, D105E
VL: B11 VL with D32E, D98N
notes: Humanized 23H8 variant
B13: hu23H8v4 (antibody, V domains shown)
VH: B9 VH with N30S, D62E, D105E
VL: B9 VL
notes: Humanized 23H8 variant; captured by anti-human Fc in SPR
B14: hu23H8v6 (antibody, V domains shown)
VH: B9 VH with N30S, D62E, D105E
VL: B10 VL with D32E, D98N
notes: Humanized 23H8 variant
B15: ch1H9 (antibody, V domains shown)
VH: EVKLMESGGDLVKPGGSLKLSCVASGFTFSGYPMSWVRQTPEKRLEWVATISTGARHTYYPDSVKGRFTISRDNAKNTLYLQMSSLRSEDTAMYYCARHEGLRRGKYHCIMDYWGQGTSVTVSS
VL: DILLTQSPASLAVSLGQRATISCKASQSIDYDGDSFLNWYQQKPGQPPKLLIYAASNLESGIPARFSGSGSGTDFTLNIHPVEEEDAATYYCHQCNEDPYMFGGGTKLEIR
notes: also called chimeric 1H9
B16: ch23H8 (antibody, V domains shown)
VH: EVQLQESGGGLVKPGGSLKLSCAASGFTFNSYAMSWVRQTPEKRLEWVATISTGGSHTYYPDSVKGRFTISRDNAKNTLYLQMSSLRSEDTAMYYCARHGYLLYDGYYEWYFDVWGAGTTVTVSS
VL: DIVLTQSPASLAVSLGQRATISCKASQSVDYDGHSFLNWYQQKPGQPPKLLIYAASNLESGLPARFSGSGSGTDFTLNIHPVEEEDAATYYCQQSTEDPPYTFGGGTKLEIK
notes: also called chimeric 23H8

Target: T1, hAREG-EGFd-mFc
Assay: SPR, Biacore T200; mAb captured on anti-human Fc chip, antigen in solution
Protocol: (§1) To evaluate affinities of different mouse hybridoma mAbs or their humanized and engineered variants, SPR measurement was performed using Biacore T200 instrument. mAbs were captured on anti-human Fc CM5 biosensor chip surface, hAREG-EGFd-mFc, mAREG-EGFd-mFc or hAREG-98aa (purchased from PeproTech, cat #100-55B) in serial dilutions were injected over antibody-bound surface, followed by a dissociation phase. Association rates (Ka) and dissociation rates (Kd) were calculated using the one-to-one Langmuir binding model (BIA Evaluation Software, GE Life Sciences). The equilibrium dissociation constant (KD) was calculated as the ratio kd/ka.

Kd [nM] | koff [s⁻¹] | kon [M⁻¹ s⁻¹] | Binder
1 | 0.000572 | 570000 | B1
1.71 | 0.001 | 587000 | B2
0.852 | 0.000411 | 483000 | B3
0.799 | 0.000233 | 291000 | B4
0.811 | 0.000206 | 254000 | B5
0.758 | 0.000184 | 243000 | B6
0.969 | 0.000259 | 267000 | B7
0.762 | 0.000229 | 301000 | B8
0.205 | 0.000214 | 1.05e+06 | B9
0.178 | 0.000213 | 1.2e+06 | B10
0.244 | 0.000249 | 1.02e+06 | B11
0.565 | 0.000348 | 628000 | B12
0.336 | 0.000276 | 821000 | B13
0.309 | 0.000246 | 803000 | B14
1.31 |  |  | B15
0.75 | 0.000313 | 418000 | B16

Each binder was assayed against T2, hAREG-98aa in the same assay as above.
Protocol: as §1

Kd [nM] | koff [s⁻¹] | kon [M⁻¹ s⁻¹] | Binder
0.349 | 0.00283 | 8.11e+06 | B3
0.537 |  | 1.11e+06 | B14
